Experimental data: US12534531 (MacroGenics, dated 2026)

Assays:
[1] = target: T1, human PD-1 expressed on the surface of cells (NSO cells expressing human PD-1; MNFAT-luc2/PD-1 Jurkat cells) (human, UniProt Q15116 21-288); assay: FACS: inhibition of sPD-L2 binding to PD-1 on NSO cells; SM; SD 0.5438
T1 construct: also called cell surface PD-1; PDCD1 transfected NSO cells expressing PD-1

[2] = target: T2, biotinylated-soluble human LAG-3-Fc fusion protein (human, UniProt P18627 23-450, biotinylated (site not stated)); assay: FACS: inhibition of shLAG-3-Fc binding to MHC II on Daudi cells (column head prints EC50); SM; SD 0.0571
T2 construct: whole entry named; also called shLAG-3; shLAG-3-Fc; not shown: Fc
T2 sequence: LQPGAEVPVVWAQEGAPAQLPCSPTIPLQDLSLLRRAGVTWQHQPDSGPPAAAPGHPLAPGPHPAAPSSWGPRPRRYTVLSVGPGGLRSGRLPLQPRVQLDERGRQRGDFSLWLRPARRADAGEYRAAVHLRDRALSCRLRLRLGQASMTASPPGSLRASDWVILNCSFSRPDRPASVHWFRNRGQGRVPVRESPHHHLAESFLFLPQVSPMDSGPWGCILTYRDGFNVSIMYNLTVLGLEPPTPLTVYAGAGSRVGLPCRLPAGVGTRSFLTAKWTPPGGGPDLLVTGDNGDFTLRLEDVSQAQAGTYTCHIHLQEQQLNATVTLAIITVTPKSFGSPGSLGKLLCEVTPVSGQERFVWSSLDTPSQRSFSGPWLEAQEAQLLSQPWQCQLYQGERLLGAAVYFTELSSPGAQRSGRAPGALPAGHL

[3] = target: T1, human PD-1 expressed on the surface of …; assay: FACS: inhibition of sPD-L1 binding to PD-1 on NSO cells; SM; SD 0.3097
[4] = target: T3, human LAG-3 expressed on NSO cells (human, UniProt P18627 29-525); assay: FACS saturation binding to NSO cells expressing LAG-3; SM; SD 0.0547
T3 sequence: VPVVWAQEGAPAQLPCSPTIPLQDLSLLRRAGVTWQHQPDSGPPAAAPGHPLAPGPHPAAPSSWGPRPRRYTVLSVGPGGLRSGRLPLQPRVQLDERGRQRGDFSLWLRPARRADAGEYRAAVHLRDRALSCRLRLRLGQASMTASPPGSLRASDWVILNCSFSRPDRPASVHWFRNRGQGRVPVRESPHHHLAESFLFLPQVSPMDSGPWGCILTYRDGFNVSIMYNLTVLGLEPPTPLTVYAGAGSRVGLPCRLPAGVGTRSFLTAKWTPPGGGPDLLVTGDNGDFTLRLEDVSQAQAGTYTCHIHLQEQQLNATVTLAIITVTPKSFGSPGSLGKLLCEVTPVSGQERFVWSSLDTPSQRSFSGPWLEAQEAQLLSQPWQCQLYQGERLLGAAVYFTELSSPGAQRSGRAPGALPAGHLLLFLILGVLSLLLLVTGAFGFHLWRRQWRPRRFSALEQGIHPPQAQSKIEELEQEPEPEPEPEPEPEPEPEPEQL

[5] = target: T1, human PD-1 expressed on the surface of …; assay: FACS: inhibition of sPD-L1 binding to PD-1 on NSO cells; SM; SD 0.1302
[6] = target: T1, human PD-1 expressed on the surface of …; assay: FACS: inhibition of sPD-L2 binding to PD-1 on NSO cells; SM; SD 0.3125
[7] = target: T2, biotinylated-soluble human LAG-3-Fc …; assay: FACS: inhibition of shLAG-3-Fc binding to MHC II on Daudi cells (column head prints EC50); SM; SD 0.1549
[8] = target: T1, human PD-1 expressed on the surface of …; assay: FACS saturation binding to NSO cells expressing PD-1; SM; SD 0.4890
[9] = target: T3, human LAG-3 expressed on NSO cells; assay: FACS saturation binding to NSO cells expressing LAG-3; SM; SD 0.1969
[10] = target: T2, biotinylated-soluble human LAG-3-Fc …; assay: FACS: inhibition of shLAG-3-Fc binding to MHC II on Daudi cells (column head prints EC50); SM; SD 0.2176
[11] = target: T3, human LAG-3 expressed on NSO cells; assay: FACS saturation binding to NSO cells expressing LAG-3; single experiment
[12] = target: T1, human PD-1 expressed on the surface of …; assay: FACS: inhibition of sPD-L2 binding to PD-1 on NSO cells; SM; SD 3.6847
[13] = target: T1, human PD-1 expressed on the surface of …; assay: FACS saturation binding to NSO cells expressing PD-1; single experiment
[14] = target: T1, human PD-1 expressed on the surface of …; assay: FACS: inhibition of sPD-L1 binding to PD-1 on NSO cells; SM; SD 0.1018
[15] = target: T2, biotinylated-soluble human LAG-3-Fc …; assay: FACS: inhibition of shLAG-3-Fc binding to MHC II on Daudi cells (column head prints EC50); SM; SD 4.9817

T1 sequence (Q15116 21-288): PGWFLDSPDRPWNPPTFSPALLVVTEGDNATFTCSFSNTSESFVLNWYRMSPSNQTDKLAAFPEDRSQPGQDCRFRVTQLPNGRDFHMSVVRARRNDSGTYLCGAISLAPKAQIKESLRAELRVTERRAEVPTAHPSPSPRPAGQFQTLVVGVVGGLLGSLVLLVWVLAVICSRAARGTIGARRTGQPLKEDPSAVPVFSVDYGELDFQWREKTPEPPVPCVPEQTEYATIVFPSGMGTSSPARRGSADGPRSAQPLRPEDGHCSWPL

B1: BSAB A (bispecific antibody)
heavy 1: QVQLVQSGAEVKKPGASVKVSCKASGYSFTSYWMNWVRQAPGQGLEWIGVIHPSDSETWLDQKFKDRVTITVDKSTSTAYMELSSLRSEDTAVYYCAREHYGTSPFAYWGQGTLVTVSSASTKGPSVFPLAPSSKSTSGGTAALGCLVKDYFPEPVTVSWNSGALTSGVHTFPAVLQSSGLYSLSSVVTVPSSSLGTQTYICNVNHKPSNTKVDKRVEPKSCEKTHTCPECPAPEAAGGPSVFLFPPKPKDTLMISRTPEVTCVVVDVSHEDPEVKFNWYVDGVEVHNAKTKPREEQYNSTYRVVSVLTVLHQDWLNGKEYKCKVSNKALPAPIEKTISKAKGQPREPQVYTLPPSREEMTKNQVSLTCEVKGFYPSDIAVEWESNGQPENNYKTTPPVLDSDGSFFLYSKLTVDKSRWQQGNVFSCSVMHEALHNHYTQKSLSLSPG
light 1: EIVLTQSPATLSLSPGERATLSCRASESVDNYGMSFMNWFQQKPGQPPKLLIHAASNQGSGVPSRFSGSGSGTDFTLTISSLEPEDFAVYFCQQSKEVPYTFGGGTKVEIKRTVAAPSVFIFPPSDEQLKSGTASVVCLLNNFYPREAKVQWKVDNALQSGNSQESVTEQDSKDSTYSLSSTLTLSKADYEKHKVYACEVTHQGLSSPVTKSFNRGEC
heavy 2: QVQLVQSGAEVKKPGASVKVSCKASGYTFTNYGMNWVRQAPGQGLEWMGWINTYTGESTYADDFEGRFVFSMDTSASTAYLQISSLKAEDTAVYYCARESLYDYYSMDYWGQGTTVTVSSASTKGPSVFPLAPSSKSTSGGTAALGCLVKDYFPEPVTVSWNSGALTSGVHTFPAVLQSSGLYSLSSVVTVPSSSLGTQTYICNVNHKPSNTKVDKRVEPKSCRKTHTCPRCPAPEAAGGPSVFLFPPKPKDTLMISRTPEVTCVVVDVSHEDPEVKFNWYVDGVEVHNAKTKPREEQYNSTYRVVSVLTVLHQDWLNGKEYKCKVSNKALPAPIEKTISKAKGQPREPQVYTLPPSREEMTKNQVSLTCLVKGFYPSDIAVEWESNGQPENNYKTTPPVLDSDGSFFLYSRLTVDKSRWQQGNVFSCSVMHEALHNHYTQKSLSLSPG
light 2: DIVMTQTPLSLSVTPGQPASISCKSSQSLLHSDAKTYLNWLLQKPGQPPERLIYLVSELDSGVPDRFSGSGSGTDFTLKISRVEAEDVGVYYCWQGTHFPYTFGGGTKVEIKRTVAAPSVFIFPPSDEQLKSGTASVVCLLNNFYPREAKVQWKVDNALQSGNSQESVTEQDSKDSTYSLSSTLTLSKADYEKHKVYACEVTHQGLSSPVTKSFNRGEC
[1]
  IC50: 4.88 µM
[2]
  IC50: 0.71 µM
[3]
  IC50: 2.16 µM

B2: DART I (bispecific antibody, human IgG4 S228P)
chain 1: DIQMTQSPSSLSASVGDRVTITCRASQDVSSVVAWYQQKPGKAPKLLIYSASYRYTGVPSRFSGSGSGTDFTLTISSLQPEDFATYYCQQHYSTPWTFGGGTKLEIKGGGSGGGGQVQLVQSGAEVKKPGASVKVSCKASGYSFTSYWMNWVRQAPGQGLEWIGVIHPSDSETWLDQKFKDRVTITVDKSTSTAYMELSSLRSEDTAVYYCAREHYGTSPFAYWGQGTLVTVSSGGCGGGEVAACEKEVAALEKEVAALEKEVAALEKESKYGPPCPPCPAPEFLGGPSVFLFPPKPKDTLYITREPEVTCVVVDVSQEDPEVQFNWYVDGVEVHNAKTKPREEQFNSTYRVVSVLTVLHQDWLNGKEYKCKVSNKGLPSSIEKTISKAKGQPREPQVYTLPPSQEEMTKNQVSLTCLVKGFYPSDIAVEWESNGQPENNYKTTPPVLDSDGSFFLYSRLTVDKSRWQEGNVFSCSVMHEALHNHYTQKSLSLSLG
chain 2: EIVLTQSPATLSLSPGERATLSCRASESVDNYGMSFMNWFQQKPGQPPKLLIHAASNQGSGVPSRFSGSGSGTDFTLTISSLEPEDFAVYFCQQSKEVPYTFGGGTKVEIKGGGSGGGGQVQLVQSGAEVKKPGASVKVSCKASGYTFTDYNMDWVRQAPGQGLEWMGDINPDNGVTIYNQKFEGRVTMTTDTSTSTAYMELRSLRSDDTAVYYCAREADYFYFDYWGQGTTLTVSSGGCGGGKVAACKEKVAALKEKVAALKEKVAALKE
[4]
  EC50: 0.532 µM
[5]
  IC50: 0.836 µM
[6]
  IC50: 1.29 µM
[7]
  IC50: 0.486 µM
[8]
  EC50: 1.32 µM

B3: hLAG-3 mAb 1 (1.4) IgG4 (P) (antibody, V domains shown)
VH: QVQLVQSGAEVKKPGASVKVSCKASGYTFTNYGMNWVRQAPGQGLEWMGWINTYTGESTYADDFEGRFVFSMDTSASTAYLQISSLKAEDTAVYYCARESLYDYYSMDYWGQGTTVTVSS
VL: DIVMTQTPLSLSVTPGQPASISCKSSQSLLHSDAKTYLNWLLQKPGQPPERLIYLVSELDSGVPDRFSGSGSGTDFTLKISRVEAEDVGVYYCWQGTHFPYTFGGGTKVEIK
[9]
  EC50: 1.01 µM
[10]
  IC50: 0.481 µM

B4: DART H (bispecific antibody)
chain 1: EIVLTQSPATLSLSPGERATLSCRASESVDNYGMSFMNWFQQKPGQPPKLLIHAASNQGSGVPSRFSGSGSGTDFTLTISSLEPEDFAVYFCQQSKEVPYTFGGGTKVEIKGGGSGGGGQVQLVQSGAEVKKPGASVKVSCKASGYTFTNYGMNWVRQAPGQGLEWMGWINTYTGESTYADDFEGRFVFSMDTSASTAYLQISSLKAEDTAVYYCARESLYDYYSMDYWGQGTTVTVSSGGCGGGEVAALEKEVAALEKEVAALEKEVAALEKGGGDKTHTCPPCPAPEAAGGPSVFLFPPKPKDTLMISRTPEVTCVVVDVSHEDPEVKFNWYVDGVEVHNAKTKPREEQYNSTYRVVSVLTVLHQDWLNGKEYKCKVSNKALPAPIEKTISKAKGQPREPQVYTLPPSREEMTKNQVSLWCLVKGFYPSDIAVEWESNGQPENNYKTTPPVLDSDGSFFLYSKLTVDKSRWQQGNVFSCSVMHEALHNHYTQKSLSLSPGK
chain 2: DIVMTQTPLSLSVTPGQPASISCKSSQSLLHSDAKTYLNWLLQKPGQPPERLIYLVSELDSGVPDRFSGSGSGTDFTLKISRVEAEDVGVYYCWQGTHFPYTFGGGTKVEIKGGGSGGGGQVQLVQSGAEVKKPGASVKVSCKASGYSFTSYWMNWVRQAPGQGLEWIGVIHPSDSETWLDQKFKDRVTITVDKSTSTAYMELSSLRSEDTAVYYCAREHYGTSPFAYWGQGTLVTVSSGGCGGGKVAALKEKVAALKEKVAALKEKVAALKE
chain 3: not shown
[11]
  EC50: 2.38 µM
[12]
  IC50: 6.21 µM
[13]
  EC50: 4.53 µM
  EC90: 22.7 µM
[14]
  IC50: 3.4 µM
[15]
  IC50: 2.9 µM
